Measured values: patent US20200148771A1 (HARPOON THERAPEUTICS, published 2020)

Experiments:
[1] = molecular target: T1, CTLA4 (Acro Biosystems), coated on plate (UniProt P16410 37-162, limits assumed); test: ELISA, CTLA4 coated at 1 µg/ml, detection with anti-human IgG-Fc-peroxidase
T1 construct: Bought antigen; the construct is not described; also called target antigen
T1 sequence (looked up): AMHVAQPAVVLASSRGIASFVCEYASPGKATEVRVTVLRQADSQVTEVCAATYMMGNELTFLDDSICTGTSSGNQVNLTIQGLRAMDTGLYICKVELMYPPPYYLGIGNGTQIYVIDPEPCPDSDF
Protocol: (§1) The affinities of the exemplary monovalent antibodies, in the prodrug and activated forms, were measured by an ELISA assay. Briefly, target antigens, CD40 or CTLA4 (both from Acro Biosystems), were coated at 1 μg/ml in a Nunc MaxiSorp plate (ThermoFisher) for 1 hour and blocked with SuperBlock (ThermoFisher). The exemplary monovalent antibodies, whether intact or matriptase-activated, were added at concentrations ranging from 0.001 to 1000 nM, as indicated in the x-axis of each plot shown in FIG. 4, and incubated for 1 hour at room temperature. Plates were washed 3 times using PBS supplemented with 0.05% Tween-20 (PBS-T). Goat anti-human IgG-Fc-peroxidase conjugate antibody (Sigma) was used at 1:10,000 dilution in PBS-T and incubated for an additional hour. Plates were washed 3 times using PBS-T, followed by development using TMB substrate (ThermoFisher), and neutralizing with 0.1 M sulfuric acid. The resulting colorimetric assay was measured at 450 nm using SpectraMax spectrophotometer (Molecular Devices).
(§2) Differential binding of the inducible monovalent antibodies in their prodrug and active forms was determined by comparing the apparent KD of the untreated (prodrug) or the protease-treated (active) forms of the inducible monovalent antibodies to their target antigens in an ELISA assay (results shown in FIG. 4).

[2] = molecular target: T2, CD40 (Acro Biosystems), coated on plate (UniProt P25942 21-193); test: ELISA, CD40 coated at 1 µg/ml, detection with anti-human IgG-Fc-peroxidase
T2 construct: Bought antigen; the construct is not described; also called target antigen
Protocol: as §1, §2

T2 sequence (P25942 21-193 limits assumed): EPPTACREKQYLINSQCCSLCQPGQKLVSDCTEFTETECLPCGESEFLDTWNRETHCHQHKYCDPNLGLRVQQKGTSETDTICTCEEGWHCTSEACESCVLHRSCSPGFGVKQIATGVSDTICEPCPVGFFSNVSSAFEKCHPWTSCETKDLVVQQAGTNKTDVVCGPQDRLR

B1: Treme-ProMonoMab, matriptase-treated (active form) (antibody, V domains shown)
VH: QVQLVESGGGVVQPGRSLRLSCAASGFTFSSYGMHWVRQAPGKGLEWVAVIWYDGSNKYYADSVKGRFTISRDNSKNTLYLQMNSLRAEDTAVYYCARDPRGATLYYYYYGMDVWGQGTTVTVSS
VL: DIQMTQSPSSLSASVGDRVTITCRASQSINSYLDWYQQKPGKAPKLLIYAASSLQSGVPSRFSGSGSGTDFTLTISSLQPEDFATYYCQQYYSTPFTFGPGTKVEIKG
notes: Same chains as the prodrug, treated overnight with 40 nM recombinant human matriptase; also called protease-treated
Which “fold difference in apparent affinity (apparent KD), matriptase-treated against untreated prodrug” value (from here on “fold difference in apparent affinity”) [1] does the source give for B1 here?
The value was 5.3 fold.

B2: Seli-ProMonoMab, matriptase-treated (active form) (antibody, V domains shown)
VH: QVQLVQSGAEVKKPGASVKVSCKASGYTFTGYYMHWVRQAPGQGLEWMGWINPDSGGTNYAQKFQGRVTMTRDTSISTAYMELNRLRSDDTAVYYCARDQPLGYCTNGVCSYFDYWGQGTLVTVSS
VL: DIQMTQSPSSVSASVGDRVTITCRASQGIYSWLAWYQQKPGKAPNLLIYTASTLQSGVPSRFSGSGSGTDFTLTISSLQPEDFATYYCQQANIFPLTFGGGTKVEIKG
notes: Same chains as the prodrug, treated overnight with 40 nM recombinant human matriptase
With B2 as the binder, how does the “fold difference in apparent affinity” value [2] read?
Its value is 2 fold.

B3: Dace-ProMonoMab, matriptase-treated (active form) (antibody, V domains shown)
VH: EVQLVESGGGLVQPGGSLRLSCAASGYSFTGYYIHWVRQAPGKGLEWVARVIPNAGGTSYNQKFKGRFTLSVDNSKNTAYLQMNSLRAEDTAVYYCAREGIYWWGQGTLVTVSS
VL: DIQMTQSPSSLSASVGDRVTITCRSSQSLVHSNGNTFLHWYQQKPGKAPKLLIYTVSNRFSGVPSRFSGSGSGTDFTLTISSLQPEDFATYFCSQTTHVPWTFGQGTKVEIKG
notes: as for B1
Which “fold difference in apparent affinity” value [2] does the source give for B3 here?
Its value is 5.1 fold.
